Reference: PMC10040874

Assays:
[1] = target: Drosophila melanogaster CNNM CBS-pair domain, GST-tagged (D. melanogaster); assay: ITC; VP-ITC, 20 °C, 20 mM Hepes pH 7.5, 100 mM NaCl, 5 mM TCEP; GST-CBS-pairs titrated with PRL; single site-binding model
[2] = target: Naegleria fowleri CNNM CBS-pair domain (N. fowleri); assay: ITC; conditions: enzyme

Chain of Drosophila melanogaster CNNM CBS-pair domain, GST-tagged (D. melanogaster) (A0A0B7P9G0 362-515): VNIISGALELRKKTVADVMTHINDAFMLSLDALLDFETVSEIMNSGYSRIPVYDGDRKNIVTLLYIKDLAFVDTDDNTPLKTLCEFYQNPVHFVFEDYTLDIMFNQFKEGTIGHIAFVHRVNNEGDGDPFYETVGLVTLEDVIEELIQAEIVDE

| fold decrease of affinity against wild type [1] [fold] | Substance | Ka [2] [M⁻¹] | Kd [2] [nM] |
| --- | --- | --- | --- |
| < 2 | Drosophila melanogaster PRL C109D (from UniProt O61722 1-176) |  |  |
| 20 | Drosophila melanogaster PRL R143E (from UniProt O61722 1-176) (enzyme) |  |  |
|  | Naegleria fowleri PRL | 688000 | 1500 |
